Common to all, as to conditions: both partners purified
The target in test [1] is T1, KAP1 S33-K434 (human, UniProt Q13263 33-434).
T1 construct: KAP1 (TRIM28), human, UniProt Q13263, residues S33-K434 (RBCC domain); The crystal structures of shorter RBCC constructs show an antiparallel homodimer; also called KAP1 RBCC (S33-K434); KAP1 RBCC; source: E. coli BL-21 CodonPlus (DE3)-RP, purified (Ni-NTA, Ulp1, Mono Q)
The test is described as follows: ITC; MicroCal ITC200, 20°C; KAP1 RBCC (9-18 μM) in the cell, SMARCAD1 CUE1 or CUE1,2 (90-300 μM) in the syringe; 10 mM Tris-HCl pH 7.9, 100 mM NaCl, 5 mM β-ME; One set of sites model.

A further test addresses T2, Ubiquitin (UniProt P0CG48 1-76).
T2 construct: ubiquitin, monomeric, the cut product of a ubiquitin precursor; also called mono-Ub; monomeric ubiquitin; source: bought: Boston Biochem (purified recombinant)
The test is described as follows: ITC; MicroCal ITC200, 10°C; 120 μM SMARCAD1 CUE1 or CUE1,2 in the cell, 9.8 mM mono-Ub in the syringe; 10 mM Tris-HCl pH 7.9, 100 mM NaCl, 5 mM β-ME; One set of sites model. On the technique in general: ITC needs no label: the signal is the heat of the interaction.

For test [2], the target named is T1, KAP1 S33-K434. Kind of test: co-IP; purified SMARCAD1 fragments (FLAG-CUE1,2, FLAG-CUE1) and KAP1 RBCC, 9.6μg each in 240μL, 4°C 1 hour; anti-FLAG M2 affinity gel 3 hours.
The next test has as its target T3, FLAG-SMARCAD1 (WT) (human, UniProt Q9H4L7 1-1026).
T3 construct: SMARCAD1, human, UniProt Q9H4L7, full length; also called wild-type SMARCAD1; pET28a-SUMO-F-SMARCAD1; source: E. coli BL-21 CodonPlus (DE3)-RIL, purified (HisTrap, Ulp1, heparin, ProSwift SAX)
T3 sequence (looked up): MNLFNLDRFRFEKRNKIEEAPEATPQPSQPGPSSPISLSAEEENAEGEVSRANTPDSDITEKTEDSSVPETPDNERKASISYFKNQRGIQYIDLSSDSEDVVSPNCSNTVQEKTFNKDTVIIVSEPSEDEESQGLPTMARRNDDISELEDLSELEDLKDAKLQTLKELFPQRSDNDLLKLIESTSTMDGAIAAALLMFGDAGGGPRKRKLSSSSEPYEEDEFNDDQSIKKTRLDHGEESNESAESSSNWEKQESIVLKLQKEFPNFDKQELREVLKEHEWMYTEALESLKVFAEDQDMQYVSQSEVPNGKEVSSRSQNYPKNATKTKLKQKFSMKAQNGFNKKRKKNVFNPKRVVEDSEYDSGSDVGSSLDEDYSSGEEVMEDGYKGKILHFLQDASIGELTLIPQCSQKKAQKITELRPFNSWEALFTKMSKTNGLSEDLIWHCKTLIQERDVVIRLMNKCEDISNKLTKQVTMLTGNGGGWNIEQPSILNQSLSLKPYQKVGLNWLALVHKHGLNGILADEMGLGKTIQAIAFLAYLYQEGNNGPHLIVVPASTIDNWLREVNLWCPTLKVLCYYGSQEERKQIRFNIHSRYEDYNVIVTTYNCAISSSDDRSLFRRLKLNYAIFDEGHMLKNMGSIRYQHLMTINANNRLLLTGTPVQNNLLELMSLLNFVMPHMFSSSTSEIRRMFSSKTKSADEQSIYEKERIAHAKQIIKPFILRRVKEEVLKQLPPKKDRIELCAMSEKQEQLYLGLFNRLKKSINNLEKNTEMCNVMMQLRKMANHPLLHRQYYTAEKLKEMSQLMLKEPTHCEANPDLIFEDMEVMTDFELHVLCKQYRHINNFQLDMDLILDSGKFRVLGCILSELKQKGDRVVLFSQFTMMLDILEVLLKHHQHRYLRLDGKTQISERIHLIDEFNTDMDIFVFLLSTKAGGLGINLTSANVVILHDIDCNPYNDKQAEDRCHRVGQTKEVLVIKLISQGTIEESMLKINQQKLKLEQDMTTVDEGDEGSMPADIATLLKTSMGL
The test is described as follows: co-IP; purified full-length SMARCAD1 and KAP1 from E. coli, 7μg each in 280μL SK binding buffer, 200mM NaCl, 4°C; immunoprecipitated with anti-FLAG M2 affinity gel.

B1: FLAG-CUE1 (domain or fragment, human, UniProt Q9H4L7 95-237, looked up)
chain: SSDSEDVVSPNCSNTVQEKTFNKDTVIIVSEPSEDEESQGLPTMARRNDDISELEDLSELEDLKDAKLQTLKELFPQRSDNDLLKLIESTSTMDGAIAAALLMFGDAGGGPRKRKLSSSSEPYEEDEFNDDQSIKKTRLDHGE
notes: SMARCAD1, human, UniProt Q9H4L7, residues S95-E237 (first CUE domain); also called wild-type CUE1 fragment (S95-E237); SMARCAD1 CUE1; source: E. coli BL-21 CodonPlus (DE3)-RIL, purified (Ni-NTA, Ulp1, Mono Q if required)
For the molecule B1, the equilibrium dissociation constant (Kd) (in general, the free concentration of one partner at which half of the binding sites on the other are occupied at equilibrium, for simple one-to-one binding) was about 0.158 µM with KAP1 S33-K434 [1] and about 952 µM in the test with Ubiquitin.

B2: FLAG-CUE1,2 P170A (domain or fragment, human, UniProt Q9H4L7 95-347, looked up)
chain: SSDSEDVVSPNCSNTVQEKTFNKDTVIIVSEPSEDEESQGLPTMARRNDDISELEDLSELEDLKDAKLQTLKELFAQRSDNDLLKLIESTSTMDGAIAAALLMFGDAGGGPRKRKLSSSSEPYEEDEFNDDQSIKKTRLDHGEESNESAESSSNWEKQESIVLKLQKEFPNFDKQELREVLKEHEWMYTEALESLKVFAEDQDMQYVSQSEVPNGKEVSSRSQNYPKNATKTKLKQKFSMKAQNGFNKKRKKN
notes: SMARCAD1, human, UniProt Q9H4L7, CUE1,2 fragment S95-N347; source: E. coli BL-21 CodonPlus (DE3)-RIL, purified (Ni-NTA, Ulp1, Mono Q if required)
For the molecule B2, the binding result with KAP1 S33-K434 [2] is given as “binds”.

B3: FLAG-CUE1,2 A192G (domain or fragment, human, UniProt Q9H4L7 95-347, looked up)
chain: SSDSEDVVSPNCSNTVQEKTFNKDTVIIVSEPSEDEESQGLPTMARRNDDISELEDLSELEDLKDAKLQTLKELFPQRSDNDLLKLIESTSTMDGAIGAALLMFGDAGGGPRKRKLSSSSEPYEEDEFNDDQSIKKTRLDHGEESNESAESSSNWEKQESIVLKLQKEFPNFDKQELREVLKEHEWMYTEALESLKVFAEDQDMQYVSQSEVPNGKEVSSRSQNYPKNATKTKLKQKFSMKAQNGFNKKRKKN
notes: as for B2
On to B3, for which the binding result with KAP1 S33-K434 [2] is recorded as “binds”.

B4: FLAG-CUE1,2 L195A (domain or fragment, human, UniProt Q9H4L7 95-347, looked up)
chain: SSDSEDVVSPNCSNTVQEKTFNKDTVIIVSEPSEDEESQGLPTMARRNDDISELEDLSELEDLKDAKLQTLKELFPQRSDNDLLKLIESTSTMDGAIAAAALMFGDAGGGPRKRKLSSSSEPYEEDEFNDDQSIKKTRLDHGEESNESAESSSNWEKQESIVLKLQKEFPNFDKQELREVLKEHEWMYTEALESLKVFAEDQDMQYVSQSEVPNGKEVSSRSQNYPKNATKTKLKQKFSMKAQNGFNKKRKKN
notes: as for B2
For B4, the binding result with KAP1 S33-K434 [2] was “binds”.

B5: FLAG-CUE1,2 D188A (domain or fragment, human, UniProt Q9H4L7 95-347, looked up)
chain: SSDSEDVVSPNCSNTVQEKTFNKDTVIIVSEPSEDEESQGLPTMARRNDDISELEDLSELEDLKDAKLQTLKELFPQRSDNDLLKLIESTSTMAGAIAAALLMFGDAGGGPRKRKLSSSSEPYEEDEFNDDQSIKKTRLDHGEESNESAESSSNWEKQESIVLKLQKEFPNFDKQELREVLKEHEWMYTEALESLKVFAEDQDMQYVSQSEVPNGKEVSSRSQNYPKNATKTKLKQKFSMKAQNGFNKKRKKN
notes: as for B2
On to B5, for which, in the test with KAP1 S33-K434 [2], the binding result was “binds”.

B6: FLAG-CUE1,2 Q171A (domain or fragment, human, UniProt Q9H4L7 95-347, looked up)
chain: SSDSEDVVSPNCSNTVQEKTFNKDTVIIVSEPSEDEESQGLPTMARRNDDISELEDLSELEDLKDAKLQTLKELFPARSDNDLLKLIESTSTMDGAIAAALLMFGDAGGGPRKRKLSSSSEPYEEDEFNDDQSIKKTRLDHGEESNESAESSSNWEKQESIVLKLQKEFPNFDKQELREVLKEHEWMYTEALESLKVFAEDQDMQYVSQSEVPNGKEVSSRSQNYPKNATKTKLKQKFSMKAQNGFNKKRKKN
notes: as for B2
For the molecule B6, the binding result with KAP1 S33-K434 [2] is “binds”.

B7: FLAG-CUE1,2 L196A (domain or fragment, human, UniProt Q9H4L7 95-347, looked up)
chain: SSDSEDVVSPNCSNTVQEKTFNKDTVIIVSEPSEDEESQGLPTMARRNDDISELEDLSELEDLKDAKLQTLKELFPQRSDNDLLKLIESTSTMDGAIAAALAMFGDAGGGPRKRKLSSSSEPYEEDEFNDDQSIKKTRLDHGEESNESAESSSNWEKQESIVLKLQKEFPNFDKQELREVLKEHEWMYTEALESLKVFAEDQDMQYVSQSEVPNGKEVSSRSQNYPKNATKTKLKQKFSMKAQNGFNKKRKKN
notes: as for B2
For the molecule B7, the binding result with KAP1 S33-K434 [2] is “binds”.

B8: FLAG-CUE1,2 E167A (domain or fragment, human, UniProt Q9H4L7 95-347, looked up)
chain: SSDSEDVVSPNCSNTVQEKTFNKDTVIIVSEPSEDEESQGLPTMARRNDDISELEDLSELEDLKDAKLQTLKALFPQRSDNDLLKLIESTSTMDGAIAAALLMFGDAGGGPRKRKLSSSSEPYEEDEFNDDQSIKKTRLDHGEESNESAESSSNWEKQESIVLKLQKEFPNFDKQELREVLKEHEWMYTEALESLKVFAEDQDMQYVSQSEVPNGKEVSSRSQNYPKNATKTKLKQKFSMKAQNGFNKKRKKN
notes: as for B2
For B8, the binding result in the test with KAP1 S33-K434 [2] is recorded as “binds”.

B9: FLAG-CUE1,2 K166A (domain or fragment, human, UniProt Q9H4L7 95-347, looked up)
chain: SSDSEDVVSPNCSNTVQEKTFNKDTVIIVSEPSEDEESQGLPTMARRNDDISELEDLSELEDLKDAKLQTLAELFPQRSDNDLLKLIESTSTMDGAIAAALLMFGDAGGGPRKRKLSSSSEPYEEDEFNDDQSIKKTRLDHGEESNESAESSSNWEKQESIVLKLQKEFPNFDKQELREVLKEHEWMYTEALESLKVFAEDQDMQYVSQSEVPNGKEVSSRSQNYPKNATKTKLKQKFSMKAQNGFNKKRKKN
notes: as for B2
On to B9, for which the binding result with KAP1 S33-K434 [2] is given as “binds”.

B10: FLAG-CUE1,2 K161A (domain or fragment, human, UniProt Q9H4L7 95-347, looked up)
chain: SSDSEDVVSPNCSNTVQEKTFNKDTVIIVSEPSEDEESQGLPTMARRNDDISELEDLSELEDLKDAALQTLKELFPQRSDNDLLKLIESTSTMDGAIAAALLMFGDAGGGPRKRKLSSSSEPYEEDEFNDDQSIKKTRLDHGEESNESAESSSNWEKQESIVLKLQKEFPNFDKQELREVLKEHEWMYTEALESLKVFAEDQDMQYVSQSEVPNGKEVSSRSQNYPKNATKTKLKQKFSMKAQNGFNKKRKKN
notes: as for B2
With B10, the binding result in the test with KAP1 S33-K434 [2] is listed as “binds”.

B11: HA-KAP1 (natural protein, human, UniProt Q13263 1-835, looked up)
chain: MAASAAAASAAAASAASGSPGPGEGSAGGEKRSTAPSAAASASASAAASSPAGGGAEALELLEHCGVCRERLRPEREPRLLPCLHSACSACLGPAAPAAANSSGDGGAAGDGTVVDCPVCKQQCFSKDIVENYFMRDSGSKAATDAQDANQCCTSCEDNAPATSYCVECSEPLCETCVEAHQRVKYTKDHTVRSTGPAKSRDGERTVYCNVHKHEPLVLFCESCDTLTCRDCQLNAHKDHQYQFLEDAVRNQRKLLASLVKRLGDKHATLQKSTKEVRSSIRQVSDVQKRVQVDVKMAILQIMKELNKRGRVLVNDAQKVTEGQQERLERQHWTMTKIQKHQEHILRFASWALESDNNTALLLSKKLIYFQLHRALKMIVDPVEPHGEMKFQWDLNAWTKSAEAFGKIVAERPGTNSTGPAPMAPPRAPGPLSKQGSGSSQPMEVQEGYGFGSGDDPYSSAEPHVSGVKRSRSGEGEVSGLMRKVPRVSLERLDLDLTADSQPPVFKVFPGSTTEDYNLIVIERGAAAAATGQPGTAPAGTPGAPPLAGMAIVKEEETEAAIGAPPTATEGPETKPVLMALAEGPGAEGPRLASPSGSTSSGLEVVAPEGTSAPGGGPGTLDDSATICRVCQKPGDLVMCNQCEFCFHLDCHLPALQDVPGEEWSCSLCHVLPDLKEEDGSLSLDGADSTGVVAKLSPANQRKCERVLLALFCHEPCRPLHQLATDSTFSLDQPGGTLDLTLIRARLQEKLSPPYSSPQEFAQDVGRMFKQFNKLTEDKADVQSIIGLQRFFETRMNEAFGDTKFSAVLVEPPPMSLPGAGLSSQELSGGPGDGP
notes: KAP1 (TRIM28), human, UniProt Q13263, full length; also called hemagglutinin-tagged KAP1; TRIM28; source: E. coli BL-21 CodonPlus (DE3)-RP, purified (HisTrap, Ulp1, heparin, Sephacryl S-400)
With B11, the binding result in the test with FLAG-SMARCAD1 (WT) is recorded as “binds”.

For the origin of these results see PMC6688830, “A Ubiquitin-Binding Domain that Binds a Structural Fold Distinct from that of Ubiquitin” (Structure(London, England:1993), 2019).
